# Test results from patent US20240067696A1 (ZEALAND PHARMA A S, published 2024).
# Non-standard residues stand in square brackets, D forms with d. Dab = NCC[C@H](N)C(=O)O; Aib = CC(C)(N)C(=O)O
# B1: Compound 28 (peptide)
# peptide: H-HSQGTFTSDYSKYLDEARAKSFVEWLEST-OH
# B2: Compound 25 (peptide)
# peptide: H-HSQGTFTSDYSKYLD[Aib]RRAESFVKWLEST-OH
# SMILES: CC(C)C[C@H](NC(=O)[C@H](Cc1c[nH]c2ccccc12)NC(=O)[C@H](CCCCN)NC(=O)[C@@H](NC(=O)[C@H](Cc1ccccc1)NC(=O)[C@H](CO)NC(=O)[C@H](CCC(=O)O)NC(=O)[C@H](C)NC(=O)[C@H](CCCNC(=N)N)NC(=O)[C@H](CCCNC(=N)N)NC(=O)C(C)(C)NC(=O)[C@H](CC(=O)O)NC(=O)[C@H](CC(C)C)NC(=O)[C@H](Cc1ccc(O)cc1)NC(=O)[C@H](CCCCN)NC(=O)[C@H](CO)NC(=O)[C@H](Cc1ccc(O)cc1)NC(=O)[C@H](CC(=O)O)NC(=O)[C@H](CO)NC(=O)[C@@H](NC(=O)[C@H](Cc1ccccc1)NC(=O)[C@@H](NC(=O)CNC(=O)[C@H](CCC(N)=O)NC(=O)[C@H](CO)NC(=O)[C@@H](N)Cc1c[nH]cn1)[C@@H](C)O)[C@@H](C)O)C(C)C)C(=O)N[C@@H](CCC(=O)O)C(=O)N[C@@H](CO)C(=O)N[C@H](C(=O)O)[C@@H](C)O
# B3: Compound 27 (peptide)
# peptide: H-HSQGTFTSDYSKYLDEARAKSFVEWLEKT-OH
# B4: Compound 29 (peptide)
# peptide: H-HSQGTFTSDYSKYLD[Aib]ARAKSFVEWLEKT-OH
# SMILES: CC(C)C[C@H](NC(=O)[C@H](Cc1c[nH]c2ccccc12)NC(=O)[C@H](CCC(=O)O)NC(=O)[C@@H](NC(=O)[C@H](Cc1ccccc1)NC(=O)[C@H](CO)NC(=O)[C@H](CCCCN)NC(=O)[C@H](C)NC(=O)[C@H](CCCNC(=N)N)NC(=O)[C@H](C)NC(=O)C(C)(C)NC(=O)[C@H](CC(=O)O)NC(=O)[C@H](CC(C)C)NC(=O)[C@H](Cc1ccc(O)cc1)NC(=O)[C@H](CCCCN)NC(=O)[C@H](CO)NC(=O)[C@H](Cc1ccc(O)cc1)NC(=O)[C@H](CC(=O)O)NC(=O)[C@H](CO)NC(=O)[C@@H](NC(=O)[C@H](Cc1ccccc1)NC(=O)[C@@H](NC(=O)CNC(=O)[C@H](CCC(N)=O)NC(=O)[C@H](CO)NC(=O)[C@@H](N)Cc1c[nH]cn1)[C@@H](C)O)[C@@H](C)O)C(C)C)C(=O)N[C@@H](CCC(=O)O)C(=O)N[C@@H](CCCCN)C(=O)N[C@H](C(=O)O)[C@@H](C)O
# B5: Compound 24 (peptide)
# peptide: H-HS[Dab](Ac)GTFTSDYSKYLD[Aib]ARAESFVKWLEST-NH2
# SMILES: CC(=O)NCC[C@H](NC(=O)[C@H](CO)NC(=O)[C@@H](N)Cc1c[nH]cn1)C(=O)NCC(=O)N[C@H](C(=O)N[C@@H](Cc1ccccc1)C(=O)N[C@H](C(=O)N[C@@H](CO)C(=O)N[C@@H](CC(=O)O)C(=O)N[C@@H](Cc1ccc(O)cc1)C(=O)N[C@@H](CO)C(=O)N[C@@H](CCCCN)C(=O)N[C@@H](Cc1ccc(O)cc1)C(=O)N[C@@H](CC(C)C)C(=O)N[C@@H](CC(=O)O)C(=O)NC(C)(C)C(=O)N[C@@H](C)C(=O)N[C@@H](CCCNC(=N)N)C(=O)N[C@@H](C)C(=O)N[C@@H](CCC(=O)O)C(=O)N[C@@H](CO)C(=O)N[C@@H](Cc1ccccc1)C(=O)N[C@H](C(=O)N[C@@H](CCCCN)C(=O)N[C@@H](Cc1c[nH]c2ccccc12)C(=O)N[C@@H](CC(C)C)C(=O)N[C@@H](CCC(=O)O)C(=O)N[C@@H](CO)C(=O)N[C@H](C(N)=O)[C@@H](C)O)C(C)C)[C@@H](C)O)[C@@H](C)O
# B6: Compound 2 (peptide)
# peptide: H-HSQGTFTSDYSKYLDSARAEDFVKWLEET-OH
# Molecular target: human glucagon receptor (human, UniProt P47871 26-477)
# Sequence (P47871 26-477): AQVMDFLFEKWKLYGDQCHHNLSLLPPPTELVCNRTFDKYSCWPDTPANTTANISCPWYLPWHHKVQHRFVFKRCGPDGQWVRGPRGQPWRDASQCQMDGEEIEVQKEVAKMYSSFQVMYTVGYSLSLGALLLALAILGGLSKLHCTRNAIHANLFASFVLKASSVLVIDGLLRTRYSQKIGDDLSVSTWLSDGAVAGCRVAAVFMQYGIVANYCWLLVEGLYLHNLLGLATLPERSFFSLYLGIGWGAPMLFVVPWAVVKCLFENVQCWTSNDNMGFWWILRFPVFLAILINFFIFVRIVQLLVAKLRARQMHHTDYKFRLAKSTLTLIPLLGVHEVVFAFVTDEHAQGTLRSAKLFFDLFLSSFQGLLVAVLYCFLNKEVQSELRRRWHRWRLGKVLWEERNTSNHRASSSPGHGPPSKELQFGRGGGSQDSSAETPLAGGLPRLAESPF
# Test: cell-based or functional assay
row,"GCG-R EC50 in vitro [nM] (cAMP, AlphaScreen, HEK293 cells expressing human Glucagon-R)",Binder
1,0.035,B1
2,0.0066,B2
3,0.063,B3
4,0.023,B4
5,0.0078,B5
6,0.18,B6
